In patent publication US20150086562A1:

Target: recombinant CD22 extracellular domain
Assay: The sheet does not state the method. The column 'KD (nM)' stands beside the confocal data. The values largely repeat FIGURE 18 (SPR on recombinant CD22 extracellular domain), so the target form is taken from there.

recombinant CD22 extracellular domain, sequence (chain, as listed by the source limits assumed): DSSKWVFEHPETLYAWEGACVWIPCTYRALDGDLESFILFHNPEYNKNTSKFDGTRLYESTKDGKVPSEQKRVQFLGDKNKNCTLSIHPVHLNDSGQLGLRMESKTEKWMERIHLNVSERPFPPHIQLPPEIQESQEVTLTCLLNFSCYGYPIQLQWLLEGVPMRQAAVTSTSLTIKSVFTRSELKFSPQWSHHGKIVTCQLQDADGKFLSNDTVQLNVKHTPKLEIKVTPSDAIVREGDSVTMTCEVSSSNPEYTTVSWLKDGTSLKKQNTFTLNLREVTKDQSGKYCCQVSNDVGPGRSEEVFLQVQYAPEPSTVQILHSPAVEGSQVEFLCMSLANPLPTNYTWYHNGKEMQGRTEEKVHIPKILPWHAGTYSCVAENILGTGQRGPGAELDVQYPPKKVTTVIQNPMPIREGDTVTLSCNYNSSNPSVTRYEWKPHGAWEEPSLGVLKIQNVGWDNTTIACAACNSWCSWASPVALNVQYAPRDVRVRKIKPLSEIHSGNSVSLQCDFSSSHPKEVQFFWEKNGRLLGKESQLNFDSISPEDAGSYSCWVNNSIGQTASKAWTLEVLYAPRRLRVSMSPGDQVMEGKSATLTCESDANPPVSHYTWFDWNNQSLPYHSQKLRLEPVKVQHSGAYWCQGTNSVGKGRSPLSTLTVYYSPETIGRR

LL2 (mouse Mab) (antibody)
Kd: 20 nM
